Several values for one entry are separate records, joined by “and”; a condition that tells them apart may be missing. Equal entries are not always repeated.
How the values were obtained:
[1] = molecular target: NrdRΔNΔC, truncated S. coelicolor NrdR lacking both N- and C-terminal domains (Streptomyces coelicolor) (UniProt O69980); experiment: SEC; analytical SEC, Superdex 200 PC 3.2/30, 7 °C; 50 mM Tris-HCl pH 8.5, 50 mM KCl, 10 mM MgCl2, 0.5 mM TCEP, nucleotides in sample and buffer; 64 µM NrdR samples
NrdR [2] = molecular target: T1, NrdR (Streptomyces coelicolor, UniProt O69980); experiment: isothermal titration calorimetry, one set of sites; format: binding
T1 construct: full-length wild type, C-terminal His tag (pET30a(+)::nrdR), E. coli BL21(DE3); apo dimer 44 kDa, dodecamer with ATP, octamer/tetramer with dATP + ATP

NrdR [3] = molecular target: T1, NrdR; experiment: isothermal titration calorimetry, one set of sites; format: binding; settings: 10 mM MgCl2, 50 mM Tris-HCl pH 8, 300 mM NaCl, 10% glycerol, 1 mM TCEP; 20 and 10 °C (which one not told)
[4] = molecular target: the molecule itself; experiment: GEMMA (gas-phase electrophoretic mobility molecular analysis); with 50 µM dAMP and equimolar Mg acetate; 0.08 mg/ml; 100 mM ammonium acetate pH 7.3, 0.005% Tween-20
[5] = molecular target: the molecule itself; experiment: cryo-EM structure; ATP-loaded NrdR; 1 mM ATP and 10 mM MgCl2 added to apo-protein, SEC in 50 mM Tris-HCl pH 8.0, 150 mM NaCl, 10 mM MgCl2, 1 mM TCEP, 0.5 mM ATP; 0.4 mg/ml (19 µM monomer) on grids
[6] = molecular target: the molecule itself; experiment: GEMMA (gas-phase electrophoretic mobility molecular analysis); with dATP + ATP (50 µM nucleotide) and equimolar Mg acetate; 0.08 and 0.16 mg/ml; 100 mM ammonium acetate pH 7.3, 0.005% Tween-20
NrdR [7] = molecular target: T2, NrdR (Streptomyces coelicolor M145, UniProt O69980 1-182); experiment: MST; MST: 25 mM Tris-HCl pH 7.6, 150 mM NaCl, 10 mM MgCl2, 5% glycerol, 1 mM DTT, 0.05% Tween-20, nucleotides 1 mM each, 10 nM Cy5-dsDNA, room temperature; settings: protein: recombinant; tags: C-terminal His6 (pET30a); chain copies: 4; label: 5'-Cy5 on sense strand; blunt
T2 sequence: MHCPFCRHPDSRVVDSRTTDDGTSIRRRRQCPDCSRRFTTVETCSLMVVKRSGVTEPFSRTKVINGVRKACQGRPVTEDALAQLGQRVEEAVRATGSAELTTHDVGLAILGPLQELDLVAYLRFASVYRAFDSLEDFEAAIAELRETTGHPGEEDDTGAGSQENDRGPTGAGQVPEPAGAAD

NrdR R17A = molecular target: T3, NrdR R17A (Streptomyces coelicolor M145, UniProt O69980 1-182, R17A); experiment: MST; 1 mM dATP + 1 mM ATP; MST: 25 mM Tris-HCl pH 7.6, 150 mM NaCl, 10 mM MgCl2, 5% glycerol, 1 mM DTT, 0.05% Tween-20, nucleotides 1 mM each, 10 nM Cy5-dsDNA, room temperature; settings: protein: recombinant; tags: C-terminal His6 (pET30a); label: 5'-Cy5 on sense strand; blunt
T3 sequence: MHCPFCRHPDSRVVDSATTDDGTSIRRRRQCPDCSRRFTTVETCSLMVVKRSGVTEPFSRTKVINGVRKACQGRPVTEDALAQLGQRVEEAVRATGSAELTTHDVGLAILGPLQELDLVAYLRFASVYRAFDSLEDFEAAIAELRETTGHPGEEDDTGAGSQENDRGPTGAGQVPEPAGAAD

NrdR D15A = molecular target: T4, NrdR D15A (Streptomyces coelicolor M145, UniProt O69980 1-182, D15A); experiment: as above; settings: protein: recombinant; tags: C-terminal His6 (pET30a); label: 5'-Cy5 on sense strand; blunt
T4 sequence: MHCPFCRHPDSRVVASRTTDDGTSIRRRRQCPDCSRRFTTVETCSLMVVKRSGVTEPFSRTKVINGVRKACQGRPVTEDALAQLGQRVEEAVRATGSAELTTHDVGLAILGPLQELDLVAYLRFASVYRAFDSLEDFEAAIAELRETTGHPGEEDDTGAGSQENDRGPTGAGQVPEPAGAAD

NrdR D15A/R17A = molecular target: T5, NrdR D15A/R17A (Streptomyces coelicolor M145, UniProt O69980 1-182, D15A;R17A); experiment: as above; settings: protein: recombinant; tags: C-terminal His6 (pET30a); label: 5'-Cy5 on sense strand; blunt
T5 sequence: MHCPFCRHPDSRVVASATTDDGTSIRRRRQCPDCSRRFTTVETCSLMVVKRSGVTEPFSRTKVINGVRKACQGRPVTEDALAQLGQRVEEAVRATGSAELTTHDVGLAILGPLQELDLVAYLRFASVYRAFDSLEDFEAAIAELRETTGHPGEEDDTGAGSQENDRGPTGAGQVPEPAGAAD

NrdR [8] = molecular target: T2, NrdR; experiment: MST; 1 mM dATP + 1 mM ADP, 10 mM Mg2+; MST: 25 mM Tris-HCl pH 7.6, 150 mM NaCl, 10 mM MgCl2, 5% glycerol, 1 mM DTT, 0.05% Tween-20, nucleotides 1 mM each, 10 nM Cy5-dsDNA, room temperature; settings: protein: recombinant; tags: C-terminal His6 (pET30a); chain copies: 4; label: 5'-Cy5 on sense strand; blunt
NrdR [9] = molecular target: T2, NrdR; experiment: MST; 1 mM dATP + 1 mM ATP, 10 mM Mg2+; MST: 25 mM Tris-HCl pH 7.6, 150 mM NaCl, 10 mM MgCl2, 5% glycerol, 1 mM DTT, 0.05% Tween-20, nucleotides 1 mM each, 10 nM Cy5-dsDNA, room temperature; settings: protein: recombinant; tags: C-terminal His6 (pET30a); chain copies: 4; label: 5'-Cy5 on sense strand; blunt
NrdR [10] = molecular target: T2, NrdR; experiment: MST; 1 mM dATP + 1 mM ATP; MST: 25 mM Tris-HCl pH 7.6, 150 mM NaCl, 10 mM MgCl2, 5% glycerol, 1 mM DTT, 0.05% Tween-20, nucleotides 1 mM each, 10 nM Cy5-dsDNA, room temperature; settings: protein: recombinant; tags: C-terminal His6 (pET30a); chain copies: 4; label: 5'-Cy5 on sense strand; blunt

NrdRΔNΔC, truncated S. coelicolor NrdR lacking both N- and C-terminal domains (from UniProt O69980 1-182) (domain or fragment)
stoichiometry N [1]: 2

Nc1ncnc2c1ncn2[C@@H]1O[C@H](COP(=O)(O)OP(=O)(O)O)[C@@H](O)[C@H]1O [ADP]
Kd (NrdR [2]): 600 nM

Nc1ncnc2c1ncn2[C@@H]1O[C@H](COP(=O)(O)O)[C@@H](O)[C@H]1O [AMP]
KD (NrdR [3]): AMP, dAMP, and di-cyclic AMP were comparable to ATP in binding strengths

Nc1ncnc2c1ncn2[C@@H]1O[C@@H]2COP(=O)(O)O[C@H]3[C@@H](O)[C@H](n4cnc5c(N)ncnc54)O[C@@H]3COP(=O)(O)O[C@H]2[C@H]1O [cyclic di-AMP]
KD (NrdR [3]): AMP, dAMP, and di-cyclic AMP were comparable to ATP in binding strengths

Nc1ncnc2c1ncn2[C@@H]1O[C@H](COP(=O)(O)OP(=O)(O)OP(=O)(O)O)[C@@H](O)[C@H]1O [ATP]
Kd (NrdR [2]): 4000 nM

Nc1ncnc2c1ncn2[C@H]1C[C@H](O)[C@@H](COP(=O)(O)O)O1 [dAMP]
KD (NrdR [3]): AMP, dAMP, and di-cyclic AMP were comparable to ATP in binding strengths

Nc1ncnc2c1ncn2[C@H]1C[C@H](O)[C@@H](COP(=O)(O)OP(=O)(O)OP(=O)(O)O)O1 [dATP]
Kd (NrdR [2]): 1000 nM

Nc1ncnc2c1ncn2[C@H]1C[C@H](O)[C@@H](COP(=O)(O)OP(=O)(O)O)O1 [dADP]
Kd (NrdR [2]): 400 nM

B1: Streptomyces coelicolor NrdR (wild type) (natural protein)
chain: MHCPFCRHPDSRVVDSRTTDDGTSIRRRRQCPDCSRRFTTVETCSLMVVKRSGVTEPFSRTKVINGVRKACQGRPVTEDALAQLGQRVEEAVRATGSAELTTHDVGLAILGPLQELDLVAYLRFASVYRAFDSLEDFEAAIAELRETTGHPGEEDDTGAGSQENDRGPTGAGQVPEPAGAAD
notes: RNR-specific transcriptional repressor NrdR of Streptomyces coelicolor strain M145; the nrdR gene cloned into pET30a(+), wild type; N-terminal Zn-ribbon domain followed by an ATP-cone domain and a C-terminal part; the wild-type nrdR gene was amplified, so probably the whole protein; Holds about 0.78 mol Zn per mol protein; also called apo-NrdR; ATP-loaded NrdR
stoichiometry N [4]: 2
stoichiometry N [5]: 12
stoichiometry N [6]: 8 and 4

B2: cydA promoter 57 bp (dsDNA)
DNA 1: GTAGGTCATAATTGCTTGTGAATGTGAACGCGTTCACAAGCGTGTCCCGATTGCGCC
DNA 2: GGCGCAATCGGGACACGCTTGTGAACGCGTTCACATTCACAAGCAATTATGACCTAC
binding result (NrdR [7]): no binding
binding result (NrdR R17A): no binding
Kd (NrdR D15A): 2600 ± 300 nM

B3: nrdRJ promoter 57 bp (dsDNA)
DNA 1: GCCAATCCCCACATCTAGTGGTTGGATAGCGTGAGCAGCCCACAAGTTGTGGTCCCC
DNA 2: GGGGACCACAACTTGTGGGCTGCTCACGCTATCCAACCACTAGATGTGGGGATTGGC
binding result (NrdR R17A): no binding
binding result (NrdR D15A/R17A): no binding
binding result (NrdR D15A): binds
Kd (NrdR [8]): 68 ± 16 nM
Kd (NrdR [9]): 51 ± 11 nM

B4: nrdRJ C18/C49 (dsDNA)
DNA 1: GCCAATCCCCACATCTACTGGTTGGATAGCGTGAGCAGCCCACAAGTTCTGGTCCCC
DNA 2: GGGGACCAGAACTTGTGGGCTGCTCACGCTATCCAACCAGTAGATGTGGGGATTGGC
binding result (NrdR R17A): no binding
fold decrease in affinity vs wild-type DNA (NrdR [10]): ~60 fold lower affinity than wild-type DNA

B5: nrdRJ T9/T18/T40/T49 (dsDNA)
DNA 1: GCCAATCCTCACATCTATTGGTTGGATAGCGTGAGCAGCTCACAAGTTTTGGTCCCC
DNA 2: GGGGACCAAAACTTGTGAGCTGCTCACGCTATCCAACCAATAGATGTGAGGATTGGC
binding result (NrdR R17A): no binding

B6: nrdRJ G9/C18 (dsDNA)
DNA 1: GCCAATCCGCACATCTACTGGTTGGATAGCGTGAGCAGCCCACAAGTTGTGGTCCCC
DNA 2: GGGGACCACAACTTGTGGGCTGCTCACGCTATCCAACCAGTAGATGTGCGGATTGGC
binding result (NrdR R17A): no binding
fold decrease in affinity vs wild-type DNA (NrdR [10]): ~50 fold lower affinity than wild-type DNA

B7: nrdAB promoter 57 bp (dsDNA)
DNA 1: CCGGGACACAACATCTGGGGGTGCTCGCGTCCCCCGGCACAAGATGTATGCTCATGC
DNA 2: GCATGAGCATACATCTTGTGCCGGGGGACGCGAGCACCCCCAGATGTTGTGTCCCGG
Kd (NrdR [8]): 159 ± 22 nM
Kd (NrdR [9]): 142 ± 31 nM
